Experiments:
[1] = biological target: T1, BSA (Bos taurus, UniProt P02769); assay: Tryptic digestion without dye, sub-sampled and quenched with protease inhibitors, then read with epicocconone (Example 8); format: biochemical, bovine; settings: no dye during digestion; sub-sampling and quenching with protease inhibitors
T1 construct: purchased Sigma-Aldrich A3059
Experimental: 1. The trypsin inhibitors, leupeptin and trypsin-inhibitor (soybean) were prepared at a concentration of 1 mM in RO water and 0.48 mg/mL in RO water, respectively. 2. The protein samples were prepared as previously described in Example 6. The reduced and alkylated protein samples were diluted 1:10 in 100 mM bicine buffer (pH 8.4-5). 3. Trypsin (4.62 μg) was added to each protein sample (231 μg/300 μL) at a ratio of 1:50 and the samples were incubated at 37° C. 4. Sub-samples were collected for inhibition of trypsin activity either by leupeptin or by trypsin inhibitor (soybean). • a. Forty-five microlitres of the tryptic digests were sub-sampled at 0, 10, 20, 30, 60, […], 90, and 120 minutes and immediately added to 1.5 mL tubes containing 5 μL of 1 mM leupeptin. The sub-samples treated with leupeptin inhibitor were left at room temperature until fluorescence was read. • b. […] The sub-samples treated with soybean trypsin inhibitor were left at room temperature until fluorescence was read. […] Fluorescence of the sub-samples was read at Ex/Em=540-10/630-10 nm with 10 flashes. […] The fluorescence value was normalised by subtracting basal fluorescence of corresponding controls from the raw fluorescence of the sub-samples. […]

[2] = biological target: T1, BSA; assay: Sub-sampled BSA tryptic digest visualised by SDS-PAGE (Deep Purple stain); format: biochemical, bovine
Experimental: A.3.4 Visualization of Trypsin Digests in SDS-PAGE • 1 The reduced and denatured BSA sample from 3.2 above was diluted 10-fold in 50 mM bicine buffer (25 μL+225 μL bicine buffer). BSA molar concentration was calculated to be approx. 4 μM. • 2 One hundred microliter of the sample (step 1) was added to a 1.5 mL microtube. Controls included a bicine-based digestion buffer and an undigested BSA sample (no trypsin). • 3 Epicocconone stock solution was diluted 100-fold in 50 mM bicine. One hundred microliter of diluted epicocconone solution was added to each corresponding well. The final concentration was 12 μM. […] At each sampling point, 15 μL of the samples were taken out, immediately mixed with 15 μL of a protein gel loading buffer (2×), denatured for 5 min at 85° C., and stored at −80° C. • 6 The sub-samples collected as described above were run by SDS-PAGE (Nupage, 12% BT gel), and gels were stained with Deep Purple for visualization. • 7 The Deep Purple-stained gels were imaged by Typhoon scanner (Ex:Em=532:560 LP; 440 PMT). • 8 All the gel lanes showing digested (FIG. 12A) and undigested (FIG. 12B) protein samples were equally gated, and the fluorescent intensity was measured by ImageQuant (v 5.2) software.
The results from the subsampled reaction was similarly analysed but without the term associated with degradation of the signal with time as this is not relevant in gels. […]

T1 sequence (P02769 25-607): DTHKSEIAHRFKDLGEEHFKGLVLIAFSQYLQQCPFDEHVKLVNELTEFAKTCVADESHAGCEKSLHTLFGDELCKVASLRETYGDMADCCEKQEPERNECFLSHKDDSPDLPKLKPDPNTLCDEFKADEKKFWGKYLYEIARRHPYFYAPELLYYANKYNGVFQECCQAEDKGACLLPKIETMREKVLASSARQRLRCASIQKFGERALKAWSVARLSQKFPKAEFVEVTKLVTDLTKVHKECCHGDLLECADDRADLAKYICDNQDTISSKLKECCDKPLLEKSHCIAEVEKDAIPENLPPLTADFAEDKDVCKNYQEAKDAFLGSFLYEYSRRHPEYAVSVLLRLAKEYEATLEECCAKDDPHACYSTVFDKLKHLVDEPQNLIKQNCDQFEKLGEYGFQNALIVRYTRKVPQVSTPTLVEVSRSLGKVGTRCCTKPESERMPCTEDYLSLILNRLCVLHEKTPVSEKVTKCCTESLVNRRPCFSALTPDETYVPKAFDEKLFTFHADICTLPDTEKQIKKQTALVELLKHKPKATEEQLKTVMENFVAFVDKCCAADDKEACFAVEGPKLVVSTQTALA

B1: trypsin: Proteomics grade trypsin protease, Sigma-Aldrich T6567 (protein, UniProt P00761 9-231, looked up)
Trypsin: IVGGYTCAANSIPYQVSLNSGSHFCGGSLINSQWVVSAAHCYKSRIQVRLGEHNIDVLEGNEQFINAAKIITHPNFNGNTLDNDIMLIKLSSPATLNSRVATVSLPRSCAAAGTECLISGWGNTKSSGSSYPSLLQCLKAPVLSDSSCKSSYPGQITGNMICVGFLEGGKDSCQGDSGGPVVCNGQLQGIVSWGYGCAQKNKPGVYTKVCNYVNWIQQTIAAN
In the case of B1, the “pseudo-first order rate constant for digestion of BSA” value [1] is reported as 0.3 min⁻¹, the “time for digestion to reach completion” value ([2]; SDS-PAGE, bicine and carbonate (NH4HCO3) digestion buffers) is reported as 0.5 to 1 h and the “apparent first order rate constant” value ([2]; sub-sampled reaction, gel fluorescence intensity, 0-128 min) is reported as 0.3136 min⁻¹.

Reference: patent publication US20090111104A1, “Method for Monitoring Hydrolytic Activity” (Fluorotechnics Pty Limited, priority 2005, published 2009)
